Data set [1] deals with T1, model peptide analog WALAPRXFA (X = tertiary leucine).
T1 sequence: WALAPRXFA

Data set [2] has as its system T2, model thrombin substrate peptide WALAPRSFA
T2 sequence: WALAPRSFA

These results are taken from US20170246255.

Turning to thrombin, the “cleavage of the peptide by the enzyme, C18 reverse phase HPLC and mass spectra after 4 hours at 23° C. with 10 nM thrombin” value in data set [1] is on record as “the TLE substituted peptide analog was not cleaved by thrombin under these conditions”; in data set [2], “unmodified peptide was efficiently cleaved by thrombin to yield the cleavage product WALAPR”.
